# Molecular target: T1, extracellular domain (ECD) of human CD47 (19aa-139aa) with C-terminal 6xHis tag (human, UniProt Q08722 19-139)
# T1 construct: also called recombinant CD47; recombinant human CD47
# Assay: ELISA, recombinant human CD47; EC50 as grade, legend the 11th table, row 38
# T1 sequence (Q08722 other isoform, or with tags, fused parts or gaps limits assumed): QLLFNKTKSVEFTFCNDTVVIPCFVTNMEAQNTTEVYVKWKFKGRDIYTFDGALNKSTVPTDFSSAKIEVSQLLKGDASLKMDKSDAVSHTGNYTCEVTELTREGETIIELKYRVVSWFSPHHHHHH
row,EC50 [pM],Binder
1,10 to 500,"hu.18B9.3i (antibody, V domains shown, Humanised 18B9, parent of the alanine scan; also called hu.18B9.3i antibody) VH: EVQLVESGGGLVQPGGSLRLSCAASGFSFNSGYMSWVRQAPGKGLEWIASIYAGSSGKTYYADWAKGRFTISKTSSKTTVYLQMNSLRAEDTAVYYCARDSGGTYYTDYLYLWGQGTLVTVSS VL: DIQMTQSPSSLSASVGDRVTITCRASEGISSYLSWYQQKPGKAPKLLIYKASTLTSGVPSRFSGSGSGTDFTLTISSLQPEDFATYYCQSTYGSSGSSGYGAAFGGGTKVEIK"
2,10 to 500,"hu.18B9.3i HC_T99A (antibody, name in Kabat numbering, V domains shown, Alanine scan variant of hu.18B9.3i; Kabat numbering) VH: EVQLVESGGGLVQPGGSLRLSCAASGFSFNSGYMSWVRQAPGKGLEWIASIYAGSSGKTYYADWAKGRFTISKTSSKTTVYLQMNSLRAEDTAVYYCARDSGGAYYTDYLYLWGQGTLVTVSS VL: DIQMTQSPSSLSASVGDRVTITCRASEGISSYLSWYQQKPGKAPKLLIYKASTLTSGVPSRFSGSGSGTDFTLTISSLQPEDFATYYCQSTYGSSGSSGYGAAFGGGTKVEIK"
3,10 to 500,"hu.18B9.3i LC_Y92A (antibody, name in Kabat numbering, V domains shown, Alanine scan variant of hu.18B9.3i; Kabat numbering) VH: EVQLVESGGGLVQPGGSLRLSCAASGFSFNSGYMSWVRQAPGKGLEWIASIYAGSSGKTYYADWAKGRFTISKTSSKTTVYLQMNSLRAEDTAVYYCARDSGGTYYTDYLYLWGQGTLVTVSS VL: DIQMTQSPSSLSASVGDRVTITCRASEGISSYLSWYQQKPGKAPKLLIYKASTLTSGVPSRFSGSGSGTDFTLTISSLQPEDFATYYCQSTAGSSGSSGYGAAFGGGTKVEIK"
4,10 to 500,"hu.18B9.3i LC_T91A (antibody, name in Kabat numbering, V domains shown, Alanine scan variant of hu.18B9.3i; Kabat numbering) VH: EVQLVESGGGLVQPGGSLRLSCAASGFSFNSGYMSWVRQAPGKGLEWIASIYAGSSGKTYYADWAKGRFTISKTSSKTTVYLQMNSLRAEDTAVYYCARDSGGTYYTDYLYLWGQGTLVTVSS VL: DIQMTQSPSSLSASVGDRVTITCRASEGISSYLSWYQQKPGKAPKLLIYKASTLTSGVPSRFSGSGSGTDFTLTISSLQPEDFATYYCQSAYGSSGSSGYGAAFGGGTKVEIK"
5,10 to 500,"hu.18B9.3i HC_L102A (antibody, name in Kabat numbering, V domains shown, Alanine scan variant of hu.18B9.3i; Kabat numbering) VH: EVQLVESGGGLVQPGGSLRLSCAASGFSFNSGYMSWVRQAPGKGLEWIASIYAGSSGKTYYADWAKGRFTISKTSSKTTVYLQMNSLRAEDTAVYYCARDSGGTYYTDYLYAWGQGTLVTVSS VL: DIQMTQSPSSLSASVGDRVTITCRASEGISSYLSWYQQKPGKAPKLLIYKASTLTSGVPSRFSGSGSGTDFTLTISSLQPEDFATYYCQSTYGSSGSSGYGAAFGGGTKVEIK"
6,10 to 500,"hu.18B9.3i LC_G95d_A (antibody, V domains shown, Alanine scan variant of hu.18B9.3i; Kabat numbering) VH: EVQLVESGGGLVQPGGSLRLSCAASGFSFNSGYMSWVRQAPGKGLEWIASIYAGSSGKTYYADWAKGRFTISKTSSKTTVYLQMNSLRAEDTAVYYCARDSGGTYYTDYLYLWGQGTLVTVSS VL: DIQMTQSPSSLSASVGDRVTITCRASEGISSYLSWYQQKPGKAPKLLIYKASTLTSGVPSRFSGSGSGTDFTLTISSLQPEDFATYYCQSTYGSSGSSAYGAAFGGGTKVEIK"
7,10 to 500,"hu.18B9.3i LC_S95b_A (antibody, V domains shown, Alanine scan variant of hu.18B9.3i; Kabat numbering) VH: EVQLVESGGGLVQPGGSLRLSCAASGFSFNSGYMSWVRQAPGKGLEWIASIYAGSSGKTYYADWAKGRFTISKTSSKTTVYLQMNSLRAEDTAVYYCARDSGGTYYTDYLYLWGQGTLVTVSS VL: DIQMTQSPSSLSASVGDRVTITCRASEGISSYLSWYQQKPGKAPKLLIYKASTLTSGVPSRFSGSGSGTDFTLTISSLQPEDFATYYCQSTYGSSGASGYGAAFGGGTKVEIK"
8,10 to 500,"hu.18B9.3i HC_T100b_A (antibody, V domains shown, Alanine scan variant of hu.18B9.3i; Kabat numbering) VH: EVQLVESGGGLVQPGGSLRLSCAASGFSFNSGYMSWVRQAPGKGLEWIASIYAGSSGKTYYADWAKGRFTISKTSSKTTVYLQMNSLRAEDTAVYYCARDSGGTYYADYLYLWGQGTLVTVSS VL: DIQMTQSPSSLSASVGDRVTITCRASEGISSYLSWYQQKPGKAPKLLIYKASTLTSGVPSRFSGSGSGTDFTLTISSLQPEDFATYYCQSTYGSSGSSGYGAAFGGGTKVEIK"
9,10 to 500,"hu.18B9.3i LC_G95a_A (antibody, V domains shown, Alanine scan variant of hu.18B9.3i; Kabat numbering) VH: EVQLVESGGGLVQPGGSLRLSCAASGFSFNSGYMSWVRQAPGKGLEWIASIYAGSSGKTYYADWAKGRFTISKTSSKTTVYLQMNSLRAEDTAVYYCARDSGGTYYTDYLYLWGQGTLVTVSS VL: DIQMTQSPSSLSASVGDRVTITCRASEGISSYLSWYQQKPGKAPKLLIYKASTLTSGVPSRFSGSGSGTDFTLTISSLQPEDFATYYCQSTYGSSASSGYGAAFGGGTKVEIK"
10,500 to 5000,"hu.18B9.3i LC_Q89A (antibody, name in Kabat numbering, V domains shown, Alanine scan variant of hu.18B9.3i; Kabat numbering) VH: EVQLVESGGGLVQPGGSLRLSCAASGFSFNSGYMSWVRQAPGKGLEWIASIYAGSSGKTYYADWAKGRFTISKTSSKTTVYLQMNSLRAEDTAVYYCARDSGGTYYTDYLYLWGQGTLVTVSS VL: DIQMTQSPSSLSASVGDRVTITCRASEGISSYLSWYQQKPGKAPKLLIYKASTLTSGVPSRFSGSGSGTDFTLTISSLQPEDFATYYCASTYGSSGSSGYGAAFGGGTKVEIK"
11,10 to 500,"hu.18B9.3i LC_S90A (antibody, name in Kabat numbering, V domains shown, Alanine scan variant of hu.18B9.3i; Kabat numbering) VH: EVQLVESGGGLVQPGGSLRLSCAASGFSFNSGYMSWVRQAPGKGLEWIASIYAGSSGKTYYADWAKGRFTISKTSSKTTVYLQMNSLRAEDTAVYYCARDSGGTYYTDYLYLWGQGTLVTVSS VL: DIQMTQSPSSLSASVGDRVTITCRASEGISSYLSWYQQKPGKAPKLLIYKASTLTSGVPSRFSGSGSGTDFTLTISSLQPEDFATYYCQATYGSSGSSGYGAAFGGGTKVEIK"
12,10 to 500,"hu.18B9.3i LC_G95f_A (antibody, V domains shown, Alanine scan variant of hu.18B9.3i; Kabat numbering) VH: EVQLVESGGGLVQPGGSLRLSCAASGFSFNSGYMSWVRQAPGKGLEWIASIYAGSSGKTYYADWAKGRFTISKTSSKTTVYLQMNSLRAEDTAVYYCARDSGGTYYTDYLYLWGQGTLVTVSS VL: DIQMTQSPSSLSASVGDRVTITCRASEGISSYLSWYQQKPGKAPKLLIYKASTLTSGVPSRFSGSGSGTDFTLTISSLQPEDFATYYCQSTYGSSGSSGYAAAFGGGTKVEIK"
13,500 to 5000,"hu.18B9.3i HC_S96A (antibody, name in Kabat numbering, V domains shown, Alanine scan variant of hu.18B9.3i; Kabat numbering) VH: EVQLVESGGGLVQPGGSLRLSCAASGFSFNSGYMSWVRQAPGKGLEWIASIYAGSSGKTYYADWAKGRFTISKTSSKTTVYLQMNSLRAEDTAVYYCARDAGGTYYTDYLYLWGQGTLVTVSS VL: DIQMTQSPSSLSASVGDRVTITCRASEGISSYLSWYQQKPGKAPKLLIYKASTLTSGVPSRFSGSGSGTDFTLTISSLQPEDFATYYCQSTYGSSGSSGYGAAFGGGTKVEIK"
14,10 to 500,"hu.18B9.3i LC_G93A (antibody, name in Kabat numbering, V domains shown, Alanine scan variant of hu.18B9.3i; Kabat numbering) VH: EVQLVESGGGLVQPGGSLRLSCAASGFSFNSGYMSWVRQAPGKGLEWIASIYAGSSGKTYYADWAKGRFTISKTSSKTTVYLQMNSLRAEDTAVYYCARDSGGTYYTDYLYLWGQGTLVTVSS VL: DIQMTQSPSSLSASVGDRVTITCRASEGISSYLSWYQQKPGKAPKLLIYKASTLTSGVPSRFSGSGSGTDFTLTISSLQPEDFATYYCQSTYASSGSSGYGAAFGGGTKVEIK"
15,10 to 500,"hu.18B9.3i HC_Y100A (antibody, name in Kabat numbering, V domains shown, Alanine scan variant of hu.18B9.3i; Kabat numbering) VH: EVQLVESGGGLVQPGGSLRLSCAASGFSFNSGYMSWVRQAPGKGLEWIASIYAGSSGKTYYADWAKGRFTISKTSSKTTVYLQMNSLRAEDTAVYYCARDSGGTAYTDYLYLWGQGTLVTVSS VL: DIQMTQSPSSLSASVGDRVTITCRASEGISSYLSWYQQKPGKAPKLLIYKASTLTSGVPSRFSGSGSGTDFTLTISSLQPEDFATYYCQSTYGSSGSSGYGAAFGGGTKVEIK"
16,10 to 500,"hu.18B9.3i LC_S95A (antibody, name in Kabat numbering, V domains shown, Alanine scan variant of hu.18B9.3i; Kabat numbering) VH: EVQLVESGGGLVQPGGSLRLSCAASGFSFNSGYMSWVRQAPGKGLEWIASIYAGSSGKTYYADWAKGRFTISKTSSKTTVYLQMNSLRAEDTAVYYCARDSGGTYYTDYLYLWGQGTLVTVSS VL: DIQMTQSPSSLSASVGDRVTITCRASEGISSYLSWYQQKPGKAPKLLIYKASTLTSGVPSRFSGSGSGTDFTLTISSLQPEDFATYYCQSTYGSAGSSGYGAAFGGGTKVEIK"
17,> 5000,"hu.18B9.3i HC_L100e_A (antibody, V domains shown, Alanine scan variant of hu.18B9.3i; Kabat numbering) VH: EVQLVESGGGLVQPGGSLRLSCAASGFSFNSGYMSWVRQAPGKGLEWIASIYAGSSGKTYYADWAKGRFTISKTSSKTTVYLQMNSLRAEDTAVYYCARDSGGTYYTDYAYLWGQGTLVTVSS VL: DIQMTQSPSSLSASVGDRVTITCRASEGISSYLSWYQQKPGKAPKLLIYKASTLTSGVPSRFSGSGSGTDFTLTISSLQPEDFATYYCQSTYGSSGSSGYGAAFGGGTKVEIK"
18,10 to 500,"hu.18B9.3i LC_S95c_A (antibody, V domains shown, Alanine scan variant of hu.18B9.3i; Kabat numbering) VH: EVQLVESGGGLVQPGGSLRLSCAASGFSFNSGYMSWVRQAPGKGLEWIASIYAGSSGKTYYADWAKGRFTISKTSSKTTVYLQMNSLRAEDTAVYYCARDSGGTYYTDYLYLWGQGTLVTVSS VL: DIQMTQSPSSLSASVGDRVTITCRASEGISSYLSWYQQKPGKAPKLLIYKASTLTSGVPSRFSGSGSGTDFTLTISSLQPEDFATYYCQSTYGSSGSAGYGAAFGGGTKVEIK"
19,10 to 500,"hu.18B9.3i LC_Y95e_A (antibody, V domains shown, Alanine scan variant of hu.18B9.3i; Kabat numbering) VH: EVQLVESGGGLVQPGGSLRLSCAASGFSFNSGYMSWVRQAPGKGLEWIASIYAGSSGKTYYADWAKGRFTISKTSSKTTVYLQMNSLRAEDTAVYYCARDSGGTYYTDYLYLWGQGTLVTVSS VL: DIQMTQSPSSLSASVGDRVTITCRASEGISSYLSWYQQKPGKAPKLLIYKASTLTSGVPSRFSGSGSGTDFTLTISSLQPEDFATYYCQSTYGSSGSSGAGAAFGGGTKVEIK"
20,10 to 500,"hu.18B9.3i LC_S94A (antibody, name in Kabat numbering, V domains shown, Alanine scan variant of hu.18B9.3i; Kabat numbering) VH: EVQLVESGGGLVQPGGSLRLSCAASGFSFNSGYMSWVRQAPGKGLEWIASIYAGSSGKTYYADWAKGRFTISKTSSKTTVYLQMNSLRAEDTAVYYCARDSGGTYYTDYLYLWGQGTLVTVSS VL: DIQMTQSPSSLSASVGDRVTITCRASEGISSYLSWYQQKPGKAPKLLIYKASTLTSGVPSRFSGSGSGTDFTLTISSLQPEDFATYYCQSTYGASGSSGYGAAFGGGTKVEIK"
21,10 to 500,"hu.18B9.3i HC_Y100a_A (antibody, V domains shown, Alanine scan variant of hu.18B9.3i; Kabat numbering) VH: EVQLVESGGGLVQPGGSLRLSCAASGFSFNSGYMSWVRQAPGKGLEWIASIYAGSSGKTYYADWAKGRFTISKTSSKTTVYLQMNSLRAEDTAVYYCARDSGGTYATDYLYLWGQGTLVTVSS VL: DIQMTQSPSSLSASVGDRVTITCRASEGISSYLSWYQQKPGKAPKLLIYKASTLTSGVPSRFSGSGSGTDFTLTISSLQPEDFATYYCQSTYGSSGSSGYGAAFGGGTKVEIK"
